Substitutions are numbered along the chain they refer to.
B1: h5E5-42 (antibody, V domains shown)
VH: QVQLVQSGAEVKKPGASVKVSCKASGYSFSGFYIDWVKQPPGKGLEWIGYIFPSNGETSYNQKFKGRVTMTVDKSTSTVYMELSSLRSEDTAVYYCARQAFYYFDYWGQGTTVTVSS
VL: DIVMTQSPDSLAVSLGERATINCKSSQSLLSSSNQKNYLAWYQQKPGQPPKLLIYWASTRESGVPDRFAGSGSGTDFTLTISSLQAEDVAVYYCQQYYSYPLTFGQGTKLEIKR
B2: h5E5-84 (antibody, V domains shown)
VH: B1 VH with Q1E, V68A
VL: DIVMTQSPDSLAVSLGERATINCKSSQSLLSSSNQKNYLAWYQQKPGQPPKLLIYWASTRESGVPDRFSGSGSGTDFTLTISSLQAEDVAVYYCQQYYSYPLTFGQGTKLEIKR
B3: h5E5-83 (antibody, V domains shown)
VH: B1 VH with Q1E, V68A
VL: DIVMTQSPDSLAVSLGERATINCKSSQSLLSSSNQKNYLAWYQQKPGQAPRLLIYWASTRESGVPDRFAGSGSGTDFTLTISSLQAEDVAVYYCQQYYSYPLTFGQGTKLEIKR
B4: h5E5-22 (antibody, V domains shown)
VH: B1 VH with Q1E, S30T, V68A
VL: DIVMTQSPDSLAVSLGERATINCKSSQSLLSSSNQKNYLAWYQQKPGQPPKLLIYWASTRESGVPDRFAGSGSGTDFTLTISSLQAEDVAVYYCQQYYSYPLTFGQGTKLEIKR
B5: h5E5-73 (antibody, V domains shown)
VH: B1 VH with S30T, Y106S
VL: B3 VL

Target: human ILT3 (binding and competition assays, construct not stated) (human, UniProt Q8NHJ6 22-259)
Test: binding to hILT3 (relative binding)

Binder | EC50
B1 | 0.05 µg/mL
B2 | 0.08 µg/mL
B3 | 0.1 µg/mL
B4 | 0.08 µg/mL
B5 | 0.09 µg/mL

Reference: patent US20250277032A1 (published 2025)
